This sample holds only a part of the variants without activity.
B1: TPR 5TU (parent)
chain: GGAUCUUCUCGAUCUAACAAAAAAGACAAAUCUGCCACAAAGCUUGAGAGCAUCUUCGGAUGCAGAGGCGGCAGCCUUCGGUGGCGCGAUAGCGCCAACGUUCUCAACUAUGACACGCAAAACGCGUGCUCCGUUGAAUGGAGUUUAUCAUG

Variants of: B1
Assay: polymerase ribozyme fitness, log enrichment relative to wild type (log ratio); higher = more active; in vitro selection for triplet polymerase activity
Procedure, shortened: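 Mutant libraries of both subunits of a heterodimeric triplet polymerase ribozyme were PCR-built, transcribed, and selected once in triplicate, with frozen incubation at −7 °C and capture of gel-excised extended constructs on streptavidin beads before RT-PCR. Illumina sequencing of input and output libraries was filtered to genotypes with ≥10 input reads and ≥1 read per output. Fitness is the logarithm of genotype enrichment over wild-type enrichment, using inverse-variance-weighted replicate averages. The logarithm is base 2.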

Variant	polymerase ribozyme fitness (log ratio)
GGAUCUUCUCGAUCUAUCAAAAAAGACAAAUCUGCCACAAAGCUUGAGGGCAUCUUCGGAUGCAGAGGCGGCAGCCUUCGGUGGCUCGAUAGCGCCAACGUUCUCAACUAUGACACGCAAAACGCGUGCUCCGUUGAAUGGAGUUUAUCAUG [A17U A49G G86U]	-1.95
GGAUCUUCUCGAUCUAUCAAAAAAGACAAAUCUGCCCCAAAGCUUAAGAGCAUCUUCGGAUGCAGAGGCGGCAGCCUUCGGUGGGGCGAUAGCGCCAACGUUCUCAACUAUGAUACGCAAAACGCGUGCUCCGUUGAAUGGAGUUUAUCAUG [A17U A37C G46A C85G C114U]	≤ -4.2
GGAUCUUCUCGAUCUAUCAAAAAAGACAAAUCUGCCCCAAAGCUUGAGAGCAUCUUCGGAAGCAGAGGCGGCAGCCUUCGGUGGCGCGAUAGAGCCAAAGUUCUCAACUAUGACACGCAAAACGAGUGCUCCGUUGAAUGGAGAUUAUCAUG [A17U A37C U61A C93A C99A C125A U144A]	≤ -4.2
GGAUCUUCUCGAUCUAUCAAAAAAGACAAAUCUGCCACAAAGCUUGAGAGCAUCUUCGGCUGCAGAGGCGGCAGCCUUCGGUGGCGCCAUAGCGCCAACGUUCUCAACUAUGACACGCAAAACGCGUGCUCCGUUGAAUGGAGUUUAUCAUG [A17U A60C G88C]	≤ -4.2
GGAUCUUCUCGAUCUAUCAAAAAAGACUAAUCUGCCACAAAGCUUGAGAGCAUCUUCGGAUGCAGAGGCGGCAGCCUUCGGUUGCGCGAUAGCGCAAAUGUUCUCAACUAUGACACGCAAAACGCGUGCUCGGUUGAAUGGAGUUUAUCAUG [A17U A28U G83U C96A C99U C132G]	≤ -4.2
GGAUCUUCUCGAUCUAUCAAAAAAGACAAAUCUGCCACAUAGCUUGAGAGCAUCUUCGGAUGCAGAGGCGGCAGCCUUCGGUGGCGCGAUAGCGCCAACGUUCUCAACUAUGCCCCGCAAAACGCGUGCUUCGUUGAAUGGAGUUUAUCAUG [A17U A40U A113C A115C C131U]	≤ -4.2
GGAUCUUCUCGAUCUAUCAAAAAAGACAAAUCUGCCACAAAGCUUGAGAGCAUCUUCGGAUUCAGAGGCGGCAGCCUUCGGUGGUGCGAUAGCGCCAACGUUCUCAACUAUGACACGCAAAACGCGUGCUCCGUUGAAUGUAGUUUAUCAUG [A17U G62U C85U G141U]	-0.389
GGAUCUUCUCGAUCUAUCAAAAAAGACAAAUCUGCCACAAACCUUGAGAGCAUCUUCGAAUGCAGAGGUGGCAGCCUUCGGUGGCGCGAUAGCGCGAACGUUCUCAACUAUGACACGCAAAACGCGUGCUCCGUUGAAUGAAGUUCAUCAUG [A17U G42C G59A C69U C96G G141A U146C]	≤ -4.2
GGAUCUUCUCGAUCUAUCAAAAAAGACAAAUCUGCCACAAAGCUUGAGAGCAUCUUCGGAUGCAGAGGUGGCAGCCCUCGGUGGCGUGAUAGCGCCAACGUUCUCAACUAUGACACGCAAAACGCGUGCUCCGUUGAAUGGAGUUUAUCAUG [A17U C69U U77C C87U]	≤ -4.2
GGAUCUUCUCGAUCUAUCAAAAAAGACAAAUCUGCCACAAAGCUUGAGAGCAUCUUCGGAUGCAGAGGCGGCAGCCUUCGGUGGCACGAUAGCGCCAACGUUCUCAACUAUGACACGCAAAACGCGUGCUCCGUUGAAUGGAGUUUAUCAUG [A17U G86A]	-0.694
GGAUCUUCUCGAUCUAUCAAAAAAGACAAAUCUGUCACAAAGCUUGAGAGCAUCUUCGGAUGCAGCGGCGGUAGCCUUCAGUGGCGCGAUAGAGCCAACGUUCUCAACUAUGACACGCAAAACGCGUGCUCCGUUGAAUGGAGUUUAUCAUG [A17U C35U A66C C72U G80A C93A]	≤ -4.2
GGAUCUUCUCGAUCUAUCAAAAAAGACAAAUCUGCCAUAAAGCUUGAGAGCAUCUUCGGAUGCAGAGGCGGCAGCCUUCGGUGGCGCGAUAGCGUCAACGUUCUCAACUAUGACCCGCAAAACGCGUGCUCCGUUGAAUGGUGUUUAUCAUG [A17U C38U C95U A115C A142U]	-3.52
GGAUCUUCUCGAUCUAUCAAAAAAGACAAAUCUGCCACAAAGCUUGAGAGCAUCUUCGGAUGCAGAGGCGGCAGCCUUCGGUGGUGCGAUAGCGCCAACGUUCUCAACUAUGACACGCAAAACGCGUGCUCCGUUGAAUGGAGUUUAUCAUG [A17U C85U]	-1.68
GGAUCUUCUCGAUCUAUUAAAAAAGACAAAUCUGCCACAAAGCUUGAGAGCAUCUUCGGAUGCAGAGGCGGCAGCCUUCGGUGGCGCGAUAGCCCCAACGUUCUCAACUAUGACUCGCAAAACGCGUGCUCCGUUGAAUGGAGUUUAUCAUG [A17U C18U G94C A115U]	-3.41
GGAUCUUCUCGAUCUAUCAAAAAAGACAAAUCUUCCACAAAGUUUGAGAGCAUCUUCGGAUGAAGAGGCGGCAGCCUUCGGUGGCGAGAUAGCGCCAACGUUCUCCAAUAUGACACGCAAAACGCGUGCUCCGUUGAAUGGAGUUUAUCAUG [A17U G34U C43U C63A C87A A106C C108A]	≤ -4.2
GGAUCUUCUCGAUCUAUCAAAAAAGACAAAUCUGCCACAAAGCUUGAGAGCAUUUUCGGAUGCAGAGGCGGCAGCCUUCGGUGACGCGAUAGCGCCAACGUUCUCAACUAUGACACGCAAAACGCGUGCUCCGUUGAAUGGAGUUUAUCAUG [A17U C54U G84A]	-0.832
GGAUCUUCUCGAUCUAUCAAAAAAGACAAAUCUGCCACCAAGCUUGAGAGCAUCUUCGGAUGCAGAGGCGGCAGCCUUCAGUGGCUCGAUAGCGCCAACGUUCUCAACUAUGACACUCAAAACGCGUGCUCCGUUGAAUGGAGCUUAGCAUG [A17U A39C G80A G86U G117U U144C U148G]	≤ -4.2
GGAUCUUCUCGAUCUAUCAAAAAAGACGAAUCUGCCACAAAGCUUGAGAGCAUCUUCGGAUGCAGAGGCGGCAGCCUUCGGUGGCCCGAUAGCGCCAACGUUCUCCACUAUGACAAGCUAAACGCGUGCUCCGUUGAAUGGAGUUUAUCAUG [A17U A28G G86C A106C C116A A119U]	≤ -4.2
GGAUCUUCUCGAUCUAUCAAAAAAGACAAAUCUGCCACAAAGCUUGAGAGCAUCUUCGGAUGCAGAGGCGGCAGCCUUCGGUGGCGCGAUAGCGCCAACGUUCUCAACUAUGACACGCAAAACGCAUGCUCCGUUGAAUGGAGUUUAUCAUG [A17U G126A]	0.557

Variant	polymerase ribozyme fitness (log ratio)
GGAUCUUCUCGAUCUAUCAAAAAAGACAAAUCUGCCUCAAAGCUUGAGAGCAUCUUCGGAUGCAGAGGCGGCAGCCUUCGGUGGCGCGAUAGCGCAAAUGUUCUCAACUAUGCCACGCAAAACGCGUGCUCCGGUGAAUGGAGUUUAUCAUC [A17U A37U C96A C99U A113C U134G G152C]	-4.19
GGAUCUUCUCGAUCUAUCAAAAAAGACGAAUCUCCCACAAAGCUUGAGAGCAUCUUCGGAUGCCGAGGCGGCAGCCUUGGGUGGCGCGAGAGCGCCAACGUUCUCAACUAUGACACGCAAAACGCGUGCUCCGUUGAAUGGAGUUUAUCAUG [A17U A28G G34C A64C C79G U90G]	≤ -4.2
GGAUCUUCUCGAUCUAUCAAAAAAGACAACUCUGACACAAAGCUUGAGAGCAUCGUCGGAUGCAGAGGCGGCAGCCUUCGGUGGCGCGAUAGCGCCAACGUUCUCAACAAUGACACGCAAAACGCGUGCUCCGUUGAAUGGAGUUUAUCAUG [A17U A30C C35A U55G U109A]	-4.11
GGAUCUUCUCGAUCUAUCAAAAAAGACAAAUCUGCCACAAAGCUUGAGAGUAUCUUCGGAUGCAGAGGCGGCAGCCUUCGGUGGCGCGAUAGCGUCAACGUUAUCAACUAUGACACGCAAAACGCGUGCUCCGUUGAAUGGAGUUUAUCAUG [A17U C51U C95U C103A]	-1.47
GGAUCUUCUCGAUCUAUCAAAAAAGACAAAUCUGCCACAUAGCUUGAGAGCGUCUUCGAAUGCAGAGGCGGCAGCCUUCGGUGGCGCGAUAGCGCCAAGGUUCUCAACUAUGACACGCAAAACGCGUGCUCCGUCGAGUGGAGUUUAUCAUG [A17U A40U A52G G59A C99G U135C A138G]	≤ -4.2
GGAUCUUCUCGAUCUAUCAAAAAAGACAAAUCUGCCACAAAGCUUGAGAGCAUCUUCGGAUUCAGAGGCGGCAGCCUUCGGUGUCGCGAUAGCGCCAACGUUCUCAACUAUGACACGCAAAACGCGUGCUCCGUUGAAUGGAGUUUAUCAUG [A17U G62U G84U]	-2.48
GGAUCUUCUCGAUCUAUCAAAAAAGACAAAUCUGUCACAUAGCUUGAGAGCAUCUUCGGAUGCAGAGGCGGCAGCCUUCGGUGGCGCGAUAUCGCCAACGUUCUCAACUAUGACACGCAAAACGCGUGCUCCGUUGAAUGGAGUUUAUCAUG [A17U C35U A40U G92U]	-2.32
GGAUCUUCUCGAUCUAUCAAAAAAGACAAAUUUGCCACAAAGCUUGAGAGCCUCUUCGGAUGCAGAGGCGGCAGCCUUCGGUGCCGCGACAGCGCCAACGUUCUCAACGAUGACACGCAAAACGCGUGCUCCGUUGAAUGGAGUUUAUCAUG [A17U C32U A52C G84C U90C U109G]	≤ -4.2
GGAUCUUCUCGAUCUAUCAAAAAAGACAAAUCUGCCACAAAGCUUGAGAACAUCUUCGGAUGCAGAUGCGGCAACCUUCGGUGGCGCGAUAGCGCCAACGUUCUCAACUAUGACACGCAAAACGCGUGCUCCGGUGAAUGGAGUUUAUCAUG [A17U G50A G67U G74A U134G]	≤ -4.2
GGAUCUUCUCGAUCUAUCAAAAAAGACAAAUCUGCCACAAAGCUUGAGAGCAUCUUCGGAUGCAGAGGGGGCAGCCUUCCGUGGCGCGAUAGCGCCAACGUUCUCAUCUAUGACACGCAAAACGCGUGCUUCGUUGAAUGGAGUGUAUCAUG [A17U C69G G80C A107U C131U U145G]	≤ -4.2
GGAUCUUCUCGAUCUAUUAAACAAGACAAAUCUGCCACAAAGCUUGAGAGCAUCUUCGGAUGCAGAGGCGGCAGCCUUCGGUGGCGCGAUAGCGCCAACGUUCUCAACUAUGACACGCAAAACGCGUGCUCCGUUGAAUGGAGUUUAUCAUG [A17U C18U A22C]	-1.32
GGAUCUUCUCGAUCUAUCAAAAAAGACAAAUCUGCCACAAAGCUUGAGAGCAUUUUCGGAUGCAGAGGCGGCAGCCUUCGGUGGCGCGAUAGCGCCAACGUUCUCAACUAUGACACGCAAAACGCGUGCUCCGUUGAAUGGAGUUUAUCAUG [A17U C54U]	-0.241
GGAUCUUCUCGAUCUAUCAAAAAAGACAAAUCUGCCACAACGCUUGAGAGCAUCUUCGGAUGCAGAGGCGGCAGCCUUCGGUCGCGCGAUAGCGCCUACGUUCUCAACUAUGACACGCAAAACGCGAGCUCCGUUGAUUGGAGUUUAUCCUG [A17U A41C G83C A97U U127A A138U A150C]	≤ -4.2
GGAUCUUCUCGAUCUAUCAAAAAAGACAAAUCUGCCACAAAGCUUGAGAGCAUCUUCGAAUGCAGAGGCGGCAGCCUUCGGUGGCGUGAUAGAGCCAACGUUCUCAACUAUGACACGCAAAACGCGUGCUCCGUUGAAUGGAUUUGAUCAUG [A17U G59A C87U C93A G143U U146G]	≤ -4.2
GGAUCUUCUCGAUCUAUCAAAAAAGACAAAUCUGCCACAAAGCUUGAGAGCAUCUUCGGAUGCAGAGGCGGCAGCAUUCGGUAGCGGGAUAGCGCCAACGUUCUCAACUAUGACACGCAAAACACGUGCUCCGUUGAAUGGAGUUUAUCCUG [A17U C76A G83A C87G G124A A150C]	≤ -4.2
GGAUCUUCUCGAUCUAUCAAAAAAGACAAAUCUGCCACAAAGCUUGAGAGCAUCUUCGGAUGCAGAGGCGGCAGCAUUCGGUGGCGCGAUAGCGCCAACGUUCUCAACUAUGACACGCAAAGCGCGUGCUCCGUUGAAUGGAGUUUAUCAUG [A17U C76A A122G]	-0.419
GGAUCUUCUCGAUCUAUCAAAAAAGACAAAUCUGCCACAAAGCUUGAGAGCAUCUUCGGAUGCAGAGGCGGCAGCCUUCGGUGGCGCGAUAGCGCCAACGUUCUCAAUUAUGACACGCAAAACGCGUGCUCCGUUGAAUGGAGUUUAUCAUG [A17U C108U]	-3.48
GGAUCUUCUCGAUCUAUCAAAAAAGACAAAUCUGCCACAAAGCUUGAGAGCAUCUUCGGAUGCAGAGGCGGCAGCCUUCGGUGGCGCGAUAGCCCCAACGUUCUCAACUAUGACACGCAAAACGCGUGCUCCGUUGAAUGGAGUUUAUCAUG [A17U G94C]	-1.63
GGAUCUUCUCGAUCUAUCAAAAAAGACAAAUCUGCCACAAAGCUUGAGAGCAUCUUCGGAUGCAGAGGCGGCAGCCUUCGGUGGCGCGAUAGCGCCAUCGUUCUCAACUAUGACACGCAAAACGCGUGCUCCGUUGAAUGGAGUUUAUCAUG [A17U A98U]	-1.12
